Laboratory results taken from the supplement of paper PMC9170038.

Test system: MS2 coat protein
Test: apparent KD of MS2 coat protein; designed switch direction (-1 OFF switch, 1 ON switch): -1; higher = weaker reporter binding
How it was run: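 An oligonucleotide input, 200 uM small-molecule ligand, or no input was present during titration of SNAP-549-labelled MS2 coat protein, which was doubled from 0.7 or 1.5 nM to 3 µM. Designed RNA switches had been transcribed on Illumina chips by stalled E. coli RNA polymerase. Apparent KD per design is the median over clusters of curves fitted to normalised cluster fluorescence.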

[1] = input ligand: microRNA oligo, concentration not stated
[2] = Eterna round: R95, input ligand: FMN 200 uM
[3] = Eterna round: R95, input ligand: microRNA oligo, concentration not stated
[4] = Eterna round: R95, input ligand: none

Sequence	apparent KD of MS2 coat protein (input ligand: FMN 200 uM) [nM]	apparent KD of MS2 coat protein [1] [nM]	apparent KD of MS2 coat protein (input ligand: none) [nM]	apparent KD of MS2 coat protein [2] [nM]	apparent KD of MS2 coat protein [3] [nM]	apparent KD of MS2 coat protein [4] [nM]
CUGCUGGAGUUUCGCUUUGGUCGUACAUGAGGAUCACCCAUGUAGGAUAUGGUAAAAUUCGCCUGCUAGAAGGAUAGAGUGGUC [salish99_ExNG3_r04_620] (Eterna round: R96, puzzle: Exclusion NG 3)	48.1	38.6	42.3	–	–	–
AAGUACCGUCACGAUAGUGAUGGUACAACAAGCAGUGAAACAUGAGGAUCACCCAUGUCCUCGAUUGCUCGUCUUAU [Sensor 3 - 80] (puzzle: Sensor v3, turn-off variant 2)	–	–	–	67.7	142	66.3
GGUACUAACACGAAAGUGUUAGUACAAUAAGCUAGUGGAACAUGAGGAUCACCCAUGUCCUCAUUAGCUCGUCUUAG [Mat - Sensor v3 - Turn-off var 2 - D37] (puzzle: Sensor v3, turn-off variant 2)	–	–	–	14.7	37.6	12.7
AGUACUAACACGAGAGUGUUAGUACAAUAAGCUUGUGAAACAUGAGGAUCACCCAUGUCCUCAUAAGCUCGUCUUAU [salish99_TOv2_r3_029] (Eterna round: R96, puzzle: Sensor v3, turn-off variant 2)	15.3	467	18.1	–	–	–
AACCGGCGGACCGAAGCUUUUUGCUUGUUUUAUACUACUACAUGAGGAUCACCCAUGUCGUGGUGGUCUGUUGUAGA [Bibe] (puzzle: Sensor v3, turn-off variant 2)	–	–	–	38.9	15.7	33.2
UAUGGUUAAGUCAGGAUAUACAUACAGAUAUCUGAGUAGAAGGGACAUGAGGAUCACCCAUGUAUGGUAGUGUU [Ex4 #54] (Eterna round: R97, puzzle: Brourd's mod of Exclusion 4)	169	–	76.3	–	–	–
UAUUAACAGGCAAGAUCCCACAUGAGGAUCACCCAUGUGCUCGUCUUAUAAGGUACUGUGACGAAAGUCACGGUACC [Sensor 3, v1 - 82] (puzzle: Sensor v3, turn-off variant 1)	–	–	–	23.2	589	29.4
AUCGUGCAGCUUUGCUGUACGAGUACAUGAGGAUCACCCAUGUAGGAUAUGGUACGCUUUGCGUGCCAGAAGGACGUGCGUUAG [salish99_ExNG3_r04_003] (Eterna round: R96, puzzle: Exclusion NG 3)	63.2	34.3	43.7	–	–	–
GACCCAAGUGUUAGGAUAUCCAGUCGUGGGACCAGGGAGAAGGAACAUGAGGAUCACCCAUGUAAAAUAGAAAC [Anti] (puzzle: Brourd's mod of Exclusion 4)	–	–	–	137	22.3	22.3
AAUAACAGAGGAUAUACUAUUUUAUGUAUUUAUUAUUUUAAACAUGAGGAUCACCCAUGUAGAAGGCUGAAUAA [JMF 11] (puzzle: Exclusion 2)	–	–	–	–	19.8	–
CUAAAUCAUGUAGGAUAUGCGUGGCAAAGCUAUGCAGAAGGACAUGAGGAUCACCCAUGUCAUUCCGUCUGCGAACAGACGGGA [Mat - Exclusion NG 1 - Mod of JL - D50] (Eterna round: R96, puzzle: Exclusion NG 1)	161	15.4	20.3	–	–	–
